Measured values: patent US20240270803A1 (Daiichi Sankyo, published 2024)

Legend:
Test in all cases: cell-based or functional assay
[1] = biological target: T1, HTRA1 protease domain HTRA1 (cat) (human, UniProt F1N152 165-380 (bovine entry))
[2] = biological target: T2, full-length HTRA1 (HTRA1 (full)) (human, UniProt Q92743 23-480)
[3] = biological target: T1, HTRA1 protease domain HTRA1 (cat); remark: listed apart in the source
[4] = biological target: T2, full-length HTRA1 (HTRA1 (full)); remark: listed apart in the source

T2 sequence (Q92743 23-480): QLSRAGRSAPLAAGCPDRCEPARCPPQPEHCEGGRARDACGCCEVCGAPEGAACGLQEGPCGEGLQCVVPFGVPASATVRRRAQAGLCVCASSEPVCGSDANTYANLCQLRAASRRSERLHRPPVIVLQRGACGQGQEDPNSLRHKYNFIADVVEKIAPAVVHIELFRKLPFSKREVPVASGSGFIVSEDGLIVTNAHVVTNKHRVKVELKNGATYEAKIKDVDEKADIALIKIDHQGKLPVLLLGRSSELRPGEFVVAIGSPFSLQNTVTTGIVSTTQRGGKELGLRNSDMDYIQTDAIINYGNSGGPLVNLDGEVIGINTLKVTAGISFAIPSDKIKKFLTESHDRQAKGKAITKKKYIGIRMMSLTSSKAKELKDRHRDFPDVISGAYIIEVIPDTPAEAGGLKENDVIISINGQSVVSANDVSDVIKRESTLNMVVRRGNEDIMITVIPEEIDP
T1 sequence (F1N152 165-380): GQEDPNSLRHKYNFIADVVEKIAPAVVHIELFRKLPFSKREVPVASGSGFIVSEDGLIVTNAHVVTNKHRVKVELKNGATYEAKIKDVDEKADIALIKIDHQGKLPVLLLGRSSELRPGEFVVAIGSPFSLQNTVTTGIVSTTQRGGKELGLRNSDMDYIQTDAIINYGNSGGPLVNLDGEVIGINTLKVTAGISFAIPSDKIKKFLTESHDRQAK

IC50 (nM) for HTRA1 (cat); decomposition rate of substrate peptide H2-Opt [1] [nM]	IC50 (nM) for HTRA1 (full); decomposition rate of substrate peptide H2-Opt [2] [nM]	IC50 (nM) for HTRA1 (cat); decomposition rate of substrate peptide H2-Opt (n=3) [3] [nM]	IC50 (nM) for HTRA1 (full); decomposition rate of substrate peptide H2-Opt (n=3) [4] [nM]	Binder
45	25			peptide derivative H322AT (designed binder) DPQFGLFSKYRTPNCSQHEGMACYALYEPVCGSDMSTYANECTLCMKIREGGHNIKIIRNGPCGG
50	17			peptide H322 (designed binder) DPQFGLFSKYRTPNCSQHEGMACYALYEPVCGSDMSTYVNECALCMKIREGGHNIKIIRNGPCGG
41	66			peptide H223 (designed binder) DPQFGLFSKYRTPNCTMDMGMACWAFYEPVCGSDMSTYANECTLCMKIREGGHNIKIIRNGPCGG
48	29			peptide H321 (designed binder) DPQFGLFSKYRTPNCSDFDGMACYAFYEPVCGSDMSTYMNECALCMKIREGGHNIKIIRNGPCGG
43	24			peptide M7 (designed binder) DPQFGLFSKYRTPNCSDHAGMACVAFYEPVCGSDMSTYANECTLCMKIREGGHNIKIIRNGPCGG
49	31			peptide derivative H308AT (designed binder) DPQFGLFSKYRTPNCSDHAGMACVALYEPVCGSDMSTYANECTLCMKIREGGHNIKIIRNGPCGG
71	38			peptide H228 (designed binder) DPQFGLFSKYRTPNCGHYNGWACQAFFEPVCGSDMSTYANECTLCMKIREGGHNIKIIRNGPCGG
		9	12	peptide derivative H321AT_D1G_S16A (designed binder) GPQFGLFSKYRTPNCADFDGMACYAFYEPVCGSDMSTYANECTLCMKIREGGHNIKIIRNGPCGG
		12.9	12.2	peptide derivative H322AT_D1G_S16A (designed binder) GPQFGLFSKYRTPNCAQHEGMACYALYEPVCGSDMSTYANECTLCMKIREGGHNIKIIRNGPCGG
72	55			peptide H218 (designed binder) DPQFGLFSKYRTPNCLKSEGMACYAYYEPVCGSDMSTYANECTLCMKIREGGHNIKIIRNGPCGG
37	15			peptide H308 (designed binder) DPQFGLFSKYRTPNCSDHAGMACVALYEPVCGSDMSTYENECVLCMKIREGGHNIKIIRNGPCGG
46	18			peptide derivative H321AT (designed binder) DPQFGLFSKYRTPNCSDFDGMACYAFYEPVCGSDMSTYANECTLCMKIREGGHNIKIIRNGPCGG
		7.9	9.1	peptide derivative H308_D1G_S16A (designed binder) GPQFGLFSKYRTPNCADHAGMACVALYEPVCGSDMSTYENECVLCMKIREGGHNIKIIRNGPCGG
